# Measured values: patent US20250108096A1, “ALCOHOL CLEANSING METHODS” (Aperiam Bio, Inc., priority 2023, published 2025)
# What was measured:
# Assay type in all cases: in vivo
# [1] = tested on: ethanol levels in circulation; test: Alcohol clearance in mice by pulmonary delivery of ADH, Abcam Ethanol Detection kit (Example 2); details: protocol of Example 1, FIG. 5
# Protocol: However, the Abcam Ethanol Detection kit was utilized for ethanol detection and the experimental group delivered ADH and NAD^+ were administered 1 mg ADH, 0.15 mmole NAD^+ (as opposed to 2 mg ADH, 0.15 mmole NAD^+ utilized in Example 1).
# [2] = tested on: ethanol levels in circulation; test: Circulating ethanol levels after acute ethanol intoxication, ADH delivered to mouse lung (Example 1); details: mice
# Protocol: Enzyme and Enzyme Solution: Alcohol dehydrogenase (ADH) from Saccharomyces cerevisiae lyophilized powder), ≥300 units/mg protein, was utilized (Sigma-Aldrich; A7011). NAD^+ utilized was obtained commercially (Sigma-Aldrich; SKU 10127965001). Enzyme solution was prepared by diluting 100 mg of ADH in 2 mL of phosphate buffered saline (PBS) on the day the study protocol began. The Enzyme plus NAD^+ solution was prepared by diluting 100 mg of ADH and 100 mg of NAD^+ in 2 mL of PBS.
# Ethanol Solution: Non-denatured ethanol was diluted to a 20% weight/volume solution with PBS (4.3M ethanol solution).
# Blood Draw Dilution: Blood was drawn from mice at time points zero, 30 minutes, 1 hour and/or 4 hours after ethanol gavage (FIG. 2) and diluted 100× in buffer. The blood was processed for plasma, 50 μl of blood from the tail vein at each time point was collected using 125 μl heparinized capillary tube (Fisher Sci Cat #14-915-64). Using a pipette the heparinized blood was forced out by air of the capillary tube and into a 0.6 ml mct. The tubes were kept on ice and subsequently spun down to recover the plasma. Plasma was removed and placed into a new tube and kept on ice until needed for the same day assay. […]
# Ethanol Detection: Ethanol was detected using the Sigma-Aldrich Ethanol Assay Kit (MAK076) according to the manufacturer's protocol for colorimetric detection. […]
# [3] = tested on: ethanol levels in circulation; test: Blood ethanol in mice after intratracheal ADH, variant ALDH and variant NOX (Example 7); details: 2 g/kg ethanol oral gavage, intratracheal 60 minutes later: 300 μg ADH, 2.52 mg variant ALDH, 250 μg variant NOX, no NAD+, 2 mice per group, FIG. 8
# Protocol: Enzyme and Enzyme Solution: Alcohol dehydrogenase (ADH) from Saccharomyces cerevisiae lyophilized powder), ≥300 units/mg protein, was utilized (Sigma-Aldrich; A7011). ADH solution was prepared by diluting 200 mg of ADH in 2 mL of phosphate buffered saline (PBS) on the day the study protocol began. A variant of human ALDH (hALDH2) and a variant of the Lactobacillus brevis NOX enzyme were utilized. The variant hALDH2 and variant NOX enzymes were generated in Escherichia coli and each comprise an N-terminal HIS-tag to facilitate purification. A variant hALDH2 solution was prepared at a concentration of 60 mg/mL and a variant NOX solution was prepared at 50 mg/mL.
# (§1) Ethanol Solution: Non-denatured ethanol was diluted to a 70% volume/volume solution.
# (§2) Ethanol Detection: Ethanol was detected using the Sigma-Aldrich Ethanol Assay Kit (MAK076) according to the manufacturer's protocol for colorimetric detection. Several dilutions for a 5 μL blood draw were tested to ensure the sample was within the linear range of the standard curve. Working in a lab space exposed to ethanol vapors was avoided. […]
# [4] = tested on: ethanol levels in circulation; test: Blood ethanol in mice after intratracheal commercial ADH and ALDH (Example 5); details: 4 g/kg ethanol oral gavage, intratracheal 60 minutes later: 2 mg or 600 U ADH, 10 mg or 20 U ALDH, each with 0.15 mmol NAD+, 2 mice per group, FIG. 6
# Protocol: Enzyme and Enzyme Solution: Alcohol dehydrogenase (ADH) from Saccharomyces cerevisiae lyophilized powder), ≥300 units/mg protein, was utilized (Sigma-Aldrich; A7011). NAD utilized was obtained commercially (Sigma-Aldrich; SKU 10127965001). The Enzyme plus NAD solution was prepared by diluting 100 mg of ADH and 100 mg of NAD in 2 mL of PBS. ADH plus NAD^+ solution was prepared by diluting 100 mg of ADH plus 100 mg NAD^+ in 2 mL of phosphate buffered saline (PBS) on the day the study protocol began.
# Aldehyde dehydrogenase (ALDH) (lyophilized powder), ≥2.0 units/mg protein potassium-activated, 50 mg total (Cymit; CAS: 9028-88-0) was utilized. ALDH plus NAD^+ solution was prepared by diluting 50 mg ALDH and 100 mg NAD^+ in 0.500 mL of PBS on the day the study protocol began. Any unused ALDH plus NAD^+ solution was stored in a −80° C.
# as §1, §2
# [5] = tested on: ethanol levels in circulation; test: Blood ethanol in mice after intratracheal yeast ADH and human ALDH2 variant (Example 6); details: 2 g/kg ethanol oral gavage, intratracheal 60 minutes later: 2 mg or 600 U ADH, 0.15 mmol NAD+, with or without 1.2 mg variant ALDH, 2 mice per group, FIG. 7
# Protocol: Enzyme and Enzyme Solution: Alcohol dehydrogenase (ADH) from Saccharomyces cerevisiae lyophilized powder), ≥300 units/mg protein, was utilized (Sigma-Aldrich; A7011). NAD^+ utilized was obtained commercially (Sigma-Aldrich; SKU 10127965001). The Enzyme plus NAD^+ solution was prepared by diluting 100 mg of ADH and 100 mg of NAD^+ in 2 mL of PBS. ADH plus NAD^+ solution was prepared by diluting 200 mg of ADH plus 200 mg NAD^+ in 2 mL of phosphate buffered saline (PBS) on the day the study protocol began. A variant of human ALDH was utilized.
# as §1
# Ethanol Detection: Ethanol was detected using the Abcam Ethanol Assay Kit (ab65343) according to the manufacturer's protocol for colorimetric detection. Several dilutions for a 5 μL blood draw were tested to ensure the sample was within the linear range of the standard curve. Working in a lab space exposed to ethanol vapors was avoided.
# To evaluate the combined effect of ADH and a variant ALDH enzyme delivery to the lungs of mice on ethanol levels in circulation after acute ethanol intoxication, ethanol control and experimental group mice were administered 2 g/kg ethanol by oral gavage (90 μL of 70% ethanol solution for a 25 g mouse) at time one. […]
molecule,measurement,setting,value
"Alcohol dehydrogenase (ADH) from Saccharomyces cerevisiae (protein, UniProt P00330 2-348, looked up, Commercial yeast alcohol dehydrogenase, lyophilized powder, ≥300 units/mg protein (Sigma-Aldrich; A7011)) Alcohol dehydrogenase 1: SIPETQKGVIFYESHGKLEYKDIPVPKPKANELLINVKYSGVCHTDLHAWHGDWPLPVKLPLVGGHEGAGVVVGMGENVKGWKIGDYAGIKWLNGSCMACEYCELGNESNCPHADLSGYTHDGSFQQYATADAVQAAHIPQGTDLAQVAPILCAGITVYKALKSANLMAGHWVAISGAAGGLGSLAVQYAKAMGYRVLGIDGGEGKEELFRSIGGEVFIDFTKEKDIVGAVLKATDGGAHGVINVSVSEAAIEASTRYVRANGTTVLVGMPAGAKCCSDVFNQVVKSISIVGSYVGNRADTREALDFFARGLVKSPIKVVGLSTLPEIYEKMEKGQIVGRYVVDTSK",blood alcohol levels relative to animals that were not administered ADH,[1],reduced
same,blood alcohol levels relative to animals that were not administered ADH,"[2]; ethanol 2 g/kg oral gavage, ADH intratracheally 15 minutes after gavage, blood at 30 minutes, 1 hour, 4 hours, FIG. 3",reduced
same,circulating ethanol levels relative to control,"[2]; ethanol by oral gavage, intratracheal administration of ADH, FIG. 1",reduced
same,amount of alcohol in the blood,[3],lowered the amount of alcohol in the blood
same,effect on removing alcohol (blood ethanol level),[4],stronger effect on removing alcohol compared to ALDH alone
same,amount of alcohol in the blood,[5],lowered the amount of alcohol in the blood
